# Test results as given in US20240060050A1, “CANINE HEPATIC ORGANOIDS” (Iowa State University Research Foundation, Inc., priority 2021, published 2024).
# B1: Anti Hot: 337 bp ssDNA HDR template, antisense strand, with 4 bp [ATAG] deletion, electroporated with Cas9 RNP (nucleic acid)
# antisense: CAAAGCGATAAGTTTAACCGAACTATCCAACATATACAACCACCCCTGTTACCGACGGTAGTAGGTACCTCGACGTGAGGGAGAGTACTACGACCAAAAACCTTTGTACTGTCGAAACGTTTACGTCCTTAAAGTTCTTTGTTTTGAAAAGGTCAATATTAATTACTTTCATTCATAATAAACACCGTGACTAGAATCTCCAAACTTCTTTTTAGACAATGAATCTTCCTACAAATCGGGAGTAATTTATGTAATCACACAAATAAAGACCCCCTTTTCCCTCCTCAGACTCGATGTCAATTATAACCATTATTCAAACTCTTCTATTATTAGTATT
# B2: Sense Hot: 337 bp ssDNA HDR template, sense strand, with 4 bp [ATAG] deletion, electroporated with Cas9 RNP (nucleic acid)
# sense: GTTTCGCTATTCAAATTGGCTTGATAGGTTGTATATGTTGGTGGGGACAATGGCTGCCATCATCCATGGAGCTGCACTCCCTCTCATGATGCTGGTTTTTGGAAACATGACAGCTTTGCAAATGCAGGAATTTCAAGAAACAAAACTTTTCCAGTTATAATTAATGAAAGTAAGTATTATTTGTGGCACTGATCTTAGAGGTTTGAAGAAAAATCTGTTACTTAGAAGGATGTTTAGCCCTCATTAAATACATTAGTGTGTTTATTTCTGGGGGAAAAGGGAGGAGTCTGAGCTACAGTTAATATTGGTAATAAGTTTGAGAAGATAATAATCATAA
# Test system: ABCB1 (MDR1) gene, exon 4
# Test: CRISPR/Cas9 HDR template insertion (ABCB1-1Δ knock-in) in liver organoids, amplicon sequencing
# Assay type: cell-based, canine
# Excerpt: The HDR template was a Megamer single-stranded DNA (ssDNA) fragment ordered from IDT. It was designed with 35 bp homology arms with a total length of the ssDNA being 337 bp. The HDR template used the exact sequence as the canine organoids were derived from, with the only difference being the 4 bp deletion [ATAG] near the middle of the strand. Both the positive and negative strand were reconstituted separately to determine which incorporation was most efficient.
# Approximately 500,000 cells were pooled for each electroporation cuvette. Media was removed from the wells, and organoids were resuspended in 500 μL Advanced DMEM/F12 (Gibco; Ref 12634-010). Organoids were centrifuged at 700 g at 4° C. for 5 min to form a pellet. Media was removed down to 500 μL, and the pellet was resuspended with 500 μL of TrypLETM Express (Gibco, Ref 12604-021) and pipette mixed approximately 15 times to assist in dissociation. Organoids were immediately placed in the hot water bath for 10 minutes at 37° C. and halfway through they were briefly (1 s) vortexed twice. After incubation, the sample was pipette mixed (5 times) and 10 μL of the sample was taken to determine cell concentration and check for successful dissociation. As described in Merenda et al. 2017, clusters of 10-15 cells increased survival post electroporation compared to a single cell suspension (Merenda et al., 2017). Immediately 6 mL of Advanced DMEM/F12 was added to stop the chemical dissociation. Again, organoids were centrifuged at 700 g at 4° C. for 5 min to form a pellet and the supernatant was removed.
# During dissociation, the ribonucleoprotein (RNP) was prepared. 150 pmol of crRNA (IDT) and 150 pmol of tracrRNA (IDT) were mixed and heated for 5 min at 95° C. in a thermocycler. Next, the mixture was removed from the heat and allowed to cool to room temperature for ˜10 minutes. Then, 300 pmol of Cas9 Nuclease V3 (IDT) was added and incubated for 10 min at room temperature (RT).
# The organoid pellet was resuspended in 90 μL of BTXpress electroporation solution (BTX; Ref 45-0801). […] The solution was added to a chilled cuvette and after the addition of the solution, the cuvette was checked for bubbles, the outside was wiped dry, and placed in a NEPA21 electroporator (Nepagene). The electroporation details can be seen in Table 6. A control GFP plasmid was electroporated separately to help determine the efficiency of electroporation. It is common to add a buffer or media solution to assist in cell recovery after electroporation. Immediately following electroporation, 400 μL of room temperature CMGF+ R/G organoid media as previously described was added to the cuvette, and the organoids were transferred to a 1.5 mL tube. The cell mixture was incubated for 30 min at RT then centrifuged at 700 g for 5 min to form a pellet. […]
# [1] = cold shock: 30° C. for 48 hours after electroporation
# [2] = incubation at 37° C. after electroporation
Molecule,estimated efficiency of correct HDR template insertion [1] [%],estimated efficiency of correct HDR template insertion [2] [%]
B1,0,~0.00303
B2,~0.0705,~0.0348
